Consider six sequences from the supplement of paper PMC12455559.

Data set [1] can be described thus: melting temperature (DSF); higher = more thermostable. In a few lines:
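After expression in E. coli C41(DE3), the candidate enzymes were bound to nickel beads and released with SUMO protease. Their melting temperature was found by differential scanning fluorimetry with Sypro Orange on a Bio-Rad CFX96. Each sealed PCR plate well held 45 μL enzyme (0 to 0.3 mg/mL) plus 5 μL 5X dye, and fluorescence was read for 250 cycles from 25 °C at 0.3 °C per cycle (ramp 0.3 °C/s).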

Data set [2] in a line: purified protein yield per well (BCA); higher = higher soluble expression. In outline:
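Purified protein yield per well is reported, as measured by the Pierce Rapid Gold BCA kit. The enzymes came from E. coli C41(DE3) autoinduction cultures of 2 mL with 100 µg/mL kanamycin, held at 37 °C for 2 h and 18 °C for 40 h, then lysed and purified on Ni-charged magnetic beads with SUMO protease release. The detection threshold is 25 ug (0.1 mg/mL), and lower values are under it.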

Data set [3] can be described thus: PET hydrolysis, aromatic products released after 48 h (umol product/mg enzyme); higher = more PET depolymerization activity. In outline: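 PET hydrolysis activity was taken as the aromatic product in the supernatant and expressed per mg enzyme. This product was measured by absorbance at 260 and 280 nm against buffer blanks. Each reaction held 5 μg (50 μL) of tagless, SUMO-cleaved candidate enzyme purified on nickel beads, plus 3.5 mg amorphous PET film or crystalline PET powder in 450 μL buffer: 50 mM NaCitrate (pH 4.5, 5.5), 50 mM NaPhosphate (pH 6.5, 7.5) or glycine (pH 8.5). Plates were sealed and left 48 h at 40 or 60 °C without shaking.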

Where [4] appears, read: substrate: aFilm, 40 °C, pH 4.5.
Setting [5] is: substrate: aFilm, 40 °C, pH 5.5.
Where [6] appears, read: substrate: aFilm, 40 °C, pH 6.5.
The mark [7] stands for this setting: substrate: aFilm, 40 °C, pH 7.5.
[8] abbreviates: substrate: aFilm, 60 °C, pH 4.5.
Setting [9] is: substrate: aFilm, 60 °C, pH 5.5.
[10] abbreviates: substrate: aFilm, 60 °C, pH 6.5.
[11] abbreviates: substrate: aFilm, 60 °C, pH 7.5.
The mark [12] stands for this setting: substrate: cryPow, 40 °C, pH 4.5.
The mark [13] stands for this setting: substrate: cryPow, 40 °C, pH 5.5.
[14] abbreviates: substrate: cryPow, 40 °C, pH 6.5.
Setting [15] is: substrate: cryPow, 40 °C, pH 7.5.
[16] abbreviates: substrate: cryPow, 60 °C, pH 4.5.
Where [17] appears, read: substrate: cryPow, 60 °C, pH 5.5.
[18] abbreviates: substrate: cryPow, 60 °C, pH 6.5.
The mark [19] stands for this setting: substrate: cryPow, 60 °C, pH 7.5.

± gives the standard deviation of the averaged measurements. Where only a bound is given, the exact number is not on record here.

“ADNPYQRGPNPTLASVAATRGTFATAQINVPGGNGFGSGVIYYPTDTSQGTFGGVAIVPGYSALFANEEAWMGPWLASFGFVVIGIETNSRTDSADARGTQLLAALDYLTQRSSVRDRVDPSRLSVVGHSAGGAGVLSAVIRRPSLKAAVGLAPGSPVGNYELSADKVPLMFISGQKDTTVTQSYLNGLYTTIPASTPSAWVEITGVDHLFATRANTTEMRVLIPWLKIFLDNDTRYTQFLCPLADSSGISMYRNKCPYVPPGGSSPSPSATPSPSVSPSASPSASPSASPSVSPSASPSVSPSASPSASPSSQPSGACTASYKTVNSWPGGYQGEVTVTAGSAAINGWTVRWTLGSGQSVSQVWNGTLTTSGSTVTVKNVSYNGSLPAAGSATFGFLANGTASTPAVTCTSP [ESM004]” registered a melting temperature in data set [1] of 55.9 C. Also, the “purified protein yield per well” value in data set [2] was 375 µg. Further, the PET hydrolysis in data set [3] (setting [4]), in data set [3] (setting [5]), in data set [3] (setting [6]), in data set [3] (setting [7]), in data set [3] (setting [8]) and in data set [3] (setting [9]) was less than 3 in each case. Further, the PET hydrolysis in data set [3] (setting [10]), in data set [3] (setting [11]), in data set [3] (setting [12]), in data set [3] (setting [13]), in data set [3] (setting [14]) and in data set [3] (setting [15]) was less than 3 in each case. The PET hydrolysis in data set [3] (setting [16]), in data set [3] (setting [17]), in data set [3] (setting [18]) and in data set [3] (setting [19]) was less than 3 throughout.

“ATTSFQRGPAPTTASIQATSGPFATSQTTVSRISVTGFGGGDIYYPTSTSSGTFGAVAIAPGYTALRSSMAWLAPRIASQGFVVFNIDTLTTSDQPATRGTELLAALDYLTTRSTVRTRIDTTRLAVMGHSMGGGGTLEAAKSRPSLQAAIPLTPWDLNKSFAGLAVPTLIIGAQADTVAPVSQHAKPFFTSLPSGLDKAYLELAGASHFAPNTSNTTIASISIAWLKRFVDDDTRYDQFLCPGPTVGTAVSQFTTNCPHIS [ESM156]” registered a melting temperature in data set [1] of 40.6 C. In addition, the “purified protein yield per well” value in data set [2] was 272 µg. In addition, the PET hydrolysis in data set [3] (setting [4]), in data set [3] (setting [5]), in data set [3] (setting [6]), in data set [3] (setting [7]), in data set [3] (setting [8]) and in data set [3] (setting [9]) was less than 3 each time. The PET hydrolysis in data set [3] (setting [10]) is less than 3; in data set [3] (setting [11]), less than 3; in data set [3] (setting [12]), less than 3; in data set [3] (setting [13]) it was 9.5 ± 0.71; in data set [3] (setting [14]), 14.5 ± 5; in data set [3] (setting [15]) it was less than 3. Moreover, the PET hydrolysis in data set [3] (setting [16]), in data set [3] (setting [17]), in data set [3] (setting [18]) and in data set [3] (setting [19]) was less than 3 in each case.

In turn, “ADNPYERGPDPTESSIEASRGPFAVSQTTVSSLAVTGFGGGTIYYPTDTSQGTFGAVAISPGYTADQSSIAWIGPRLASQGFVVFTIDTITRYDQPASRGDQLLAALDYLTQRSSVRGRIDSSRLGVAGHSMGGGGTLEAAEERPSLQAAVPLAPWNLQKNFSGVRVPTFIIGGESDTVAPVATHSEPFYTSLPSTLDKAYMELNNASHFFPNTPNTTMAKYMISWFKRFIDDDTRYDQFLCPNPSGLAIEEYRSTCPY [TEP089]” showed a melting temperature in data set [1] of 44.2 C. Further, the “purified protein yield per well” value in data set [2] was 105 µg. Besides, the PET hydrolysis in data set [3] (setting [12]), in data set [3] (setting [13]), in data set [3] (setting [14]), in data set [3] (setting [15]), in data set [3] (setting [16]) and in data set [3] (setting [17]) was less than 3 each time. The PET hydrolysis in data set [3] (setting [18]) and in data set [3] (setting [19]) was less than 3 in each case.

With “DEIGQAPTASNITGNGSFATTSESISSLVSGFGGGRVYYPTATGRYPVIAISPGFTATWSSLAWIGPRLSSWGFVVVGIETNSIYDQPGSRGNQLLAALNWAVNSSSTAVRSRVDGSRRGVAGHSMGGGGTLEALAADTSGLVKAGVPLAPWNTDKIWSNVSEPVLIVGGQADTIAPVATHSVPFYNTLAGPKTYVELTGASHFFPQTTNATTSRALVSWFKRWLNQDSRFTPYTCGFGGLAVSDFRSNAC [ESM147]”, the melting temperature in data set [1] amounted to 67.9 C. The “purified protein yield per well” value in data set [2] is 75.4 µg. For the same sequence, the PET hydrolysis in data set [3] (setting [12]) is 11; in data set [3] (setting [13]) it was 29; in data set [3] (setting [14]) it was 31; in data set [3] (setting [15]), 46; in data set [3] (setting [16]) it was less than 3; in data set [3] (setting [17]) it was 22. In addition, the figures for the PET hydrolysis in data set [3] (setting [18]) and in data set [3] (setting [19]) were 42 and 81, respectively.

In the case of “MPPPDSGAAAHERVHAEPSDPATVGSAGGNPFARGPDPTLASVAAEFGPFATTQLSVPPGHGFNGGYVYYPTDASPTFGAVAIVPGYTALFADEEAWMGPRLASFGFVVIGIETNSREDWDRARGAQLLAALDYVTQHSTVRTRVDSSRLAVIGHSMGGGGAFAAATRRPSLKAVVGLAPYFPSGDLATVRVPTLIIGGQRDTTVTPSYLDDLYATLPTRTPSAYLMLADADHLFPTRPNPVEMRLLIPWLKIFVDRDTRYVRFLCPLADRSGIAQYRVTCPLVPPA [TEP003]”, the melting temperature in data set [1] turned out to be 67.6 C. In data set [2], the “purified protein yield per well” value was determined as 152 µg. In addition, the PET hydrolysis in data set [3] (setting [12]), in data set [3] (setting [13]), in data set [3] (setting [14]), in data set [3] (setting [15]), in data set [3] (setting [16]) and in data set [3] (setting [17]) was less than 3 throughout. For the same sequence, the PET hydrolysis in data set [3] (setting [18]) and in data set [3] (setting [19]) was less than 3 in each case.

The sequence “ADSPYQRGPDPTLASVAATRGPFATTQATVPAGNGFNGGYVYYPTDTSQGTWGAVAIVPGYSALFANEEAWMGPWLASFGFVVIGIETNSRTDGADARATQLLAALDYLTRTSPIRNRVDPNRLSVMGHSAGGAGTLLAALRRPTLKAAVGLAPGTPGNNLNMSTTQVPTMLLSGQNDGTVTPSYVQGIYNTLPAGVEHAWAELAGNDHLSFTRSNPTEMRLLIPWLKTFLDNDTRYTQFLCPLADSTGVSRYSATCPLVPPDGPTPPPTTAPPTTTPPTSTPPTTSAPTTPPPSGAACTATYRTVNSWSGGFQGEVTVTAGTAAVNGWTVTWNLSNGQSISQVWNGTLSTSGSTATVRNVSYNGSLAPGGTTTFGFLGSGTPANASPTCASP [ESM014]” gave a melting temperature in data set [1] of 59.2 C. The “purified protein yield per well” value in data set [2] was found to be 85.8 µg. For the same sequence, the PET hydrolysis in data set [3] (setting [12]), in data set [3] (setting [13]), in data set [3] (setting [14]), in data set [3] (setting [15]), in data set [3] (setting [16]) and in data set [3] (setting [17]) was less than 3 throughout. Besides, the PET hydrolysis in data set [3] (setting [18]) and in data set [3] (setting [19]) was less than 3 in each case.
